Data taken from patent US6794491B1, “Polypeptides, their production and use” (Takeda Chemical Industries, Ltd., priority 1995, dated 2004).
Entries after “also recorded” stand apart in the source; their conditions may differ. Where no end group is shown, it is not given here. [ ]: non-standard residue; d: D form. Met(O) = CS(=O)CC[C@H](N)C(=O)O

Key:
[1] = target: T1, full-length receptor protein expressed CHO cells (CHO-19P2); human pituitary receptor protein (hGR3) (Homo sapiens, UniProt P49683); assay: release of arachidonic acid metabolites from CHO-19P2 cells; type: cell-based; settings: for arachidonic acid metabolite-releasing activity: amount of [3H]arachidonic acid metabolites, 10^−12 M-10^−6 M in 0.05% BSA-HBSS
T1 construct: to construct a full-length receptor protein expression plasmid pAKKO-19P2; expressed in transfected cells; host or cells: CHO dhfr- cells transfected with pAKKO-19P2 (CHO-19P2; clone CHO-19P2-9)
T1 sequence (P49683 1-370): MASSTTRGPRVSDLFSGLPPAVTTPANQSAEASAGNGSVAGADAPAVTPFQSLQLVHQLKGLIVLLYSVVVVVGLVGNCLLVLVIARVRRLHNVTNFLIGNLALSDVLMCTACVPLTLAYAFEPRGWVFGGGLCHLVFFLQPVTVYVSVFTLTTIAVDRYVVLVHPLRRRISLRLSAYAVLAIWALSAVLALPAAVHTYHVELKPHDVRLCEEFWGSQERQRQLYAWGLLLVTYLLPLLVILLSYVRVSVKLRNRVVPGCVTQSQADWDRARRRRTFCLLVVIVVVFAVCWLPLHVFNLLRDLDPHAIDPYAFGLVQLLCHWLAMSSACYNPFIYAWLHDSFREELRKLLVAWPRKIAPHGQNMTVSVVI
Experimental: The full-length receptor protein-expressed CHO cells and mock CHO cells were seeded in a 24-well plate, 0.5×10^5 cells/well, and cultured for 24 hours. Then, [^3H] arachidonic acid was added at a final concentration of 0.25 μCi/well. Sixteen (16) hours after addition of [^3H] arachidonic acid, the cells were rinsed with 0.05% BSA-HBSS and the above-mentioned crude peptide fraction was added, 400 μl/well. The mixture was incubated at 37° C. for 30 minutes and a 300 μl portion of the reaction mixture (400 μl) was added to 4 ml of a scintillator and the amount of [^3H] arachidonic acid metabolite released into the reaction mixture was determined with a scintillation counter.
The activity of the peptide (19P2-L31) synthesized in Example 21 to specifically release arachidonic acid metabolites from CHO-19P2 cells was assayed in the same manner as Example 11. The synthetic peptide was dissolved in degassed dH20 at a concentration of 10^−3M and diluted with 0.05% BSA-HBSS and the activity to promote release of arachidonic acid metabolites from CHO-19P2 cells at each concentration was assayed using the amount of [^3H]arachidonic acid metabolites as the indicator.
The activity of the synthetic equivalent (19P2-L20) of natural peptide P-2 as synthesized in Example 23 to specifically promote release of arachidonic acid metabolites from CHO-19P2 cells was determined as in Example 11. Thus, the synthetic peptide was dissolved in degassed dH2O at a final concentration of 10^−3M and this solution was serially diluted with 0.05% BAS-HBSS. The activity to specifically promote release of arachidonic acid metabolites from CHO-19P2 cells at each concentration was assayed using the amount of [^3H]arachidonic acid metabolites as the indicator.

[2] = plasma growth hormone (GH) level in freely moving rats, GHRH-induced; type: in vivo, male Wistar rats; settings: 5 μg/kg GHRH intravenously
Experimental: Mature male Wistar rats were anesthetized with pentobarbital 50 mg/kg i.p. and, as in Example 41, a stainless-steel guide cannula AG-12 (0.4 mm in. dia., 0.5 mm out. dia., EICOM) was implanted in position with its tip situated in the upper part of the third ventricle. After the operation the rats were housed in individual cages and kept for at least 3 days for recuperation and, then, a cannula (30 cm long, 0.5 mm in. dia., 0.9 mm out. dia., Natsume Seisakusho) filled with heparin (200 U/ml)-containing saline was inserted into the right atrium from the right jugular vein under pentobarbital anesthesia. The rats were maintained overnight for complete arousal from anesthesia and then transferred to transparent acrylic cages (30 cm×30 cm×35 cm). A 1 ml tuberculin syringe with a 24-G needle (both by Termo) was connected to the cannula inserted in the atrium and 300 μl of blood was drawn. To prevent clotting, the syringe was filled with 20 μl of saline containing 200 U/ml of heparin beforehand. […] The concentrations of GH in the plasma were determined by radioimmunoassay.
The results were expressed as a mean±S.E.M. To test for significant difference between the group treated with 19P2-L31 dissolved in PBS and the control group treated with PBS alone, Student's t-test was used. […]

In the case of “19P2-L31(O): the methionine-oxidation product of 19P2-L31 synthesized in Example 22 (SRAHQHS[Met(O)]EIRTPDINPAWYAGRGIRPVGRF-NH2; N-terminus assumed; SMILES CC[C@H](C)[C@H](NC(=O)CNC(=O)[C@H](CCCNC(=N)N)NC(=O)CNC(=O)[C@H](C)NC(=O)[C@H](Cc1ccc(O)cc1)NC(=O)[C@H](Cc1c[nH]c2ccccc12)NC(=O)[C@H](C)NC(=O)[C@@H]1CCCN1C(=O)[C@H](CC(N)=O)NC(=O)[C@@H](NC(=O)[C@H](CC(=O)O)NC(=O)[C@@H]1CCCN1C(=O)[C@@H](NC(=O)[C@H](CCCNC(=N)N)NC(=O)[C@@H](NC(=O)[C@H](CCC(=O)O)NC(=O)[C@H](CCS(C)=O)NC(=O)[C@H](CO)NC(=O)[C@H](Cc1c[nH]cn1)NC(=O)[C@H](CCC(N)=O)NC(=O)[C@H](Cc1c[nH]cn1)NC(=O)[C@H](C)NC(=O)[C@H](CCCNC(=N)N)NC(=O)[C@@H](N)CO)[C@@H](C)CC)[C@@H](C)O)[C@@H](C)CC)C(=O)N[C@@H](CCCNC(=N)N)C(=O)N1CCC[C@H]1C(=O)N[C@H](C(=O)NCC(=O)N[C@@H](CCCNC(=N)N)C(=O)N[C@@H](Cc1ccccc1)C(N)=O)C(C)C)”, the “arachidonic acid metabolite-releasing activity compared with that of 19P2-L31” value [1] is reported as “equivalent to the activity of 19P2-L31” and the “arachidonic acid metabolite-releasing activity” value [1] is reported as “found in a dose-dependent manner”.

For “GHRH: Growth hormone releasing hormone (YADAIFTNSYRKVLGQLSARKLLQDIMSRQQGESNQERGARARL; ends and bridges not checked; UniProt P01286 32-75, looked up) [reference compound]”, the “plasma GH level” value [2] was “elevated the plasma GH level”.

In the case of “Thr-Pro-Asp-Ile-Aln-Pro-Ala-Trp-Tyr-Ala-Gly-Arg-Gly-Ile-Arg-Pro-Val-Gly-Arg-Phe-NH2 (TPDINPAWYAGRGIRPVGRF-NH2; also: position 5 written 'Aln' in name, letter N) [19P2-L20]”, the “arachidonic acid metabolite-releasing activity compared with that of 19P2-L31” value [1] is reported as “in nearly the same degree as 19P2-L31” and the “arachidonic acid metabolite-releasing activity” value [1] is reported as “concentration-dependent arachidonic acid metabolite-releasing activity was detected over the range of 10^−12-10^−6M; also recorded: found in a dose-dependent manner”.
